Target: human alpha-synuclein (wild-type, recombinant)

B1: G protein-coupled receptor kinase 6 (protein)
chain: MELENIVANTVLLKAREGGGGNRKGKSKKWRQMLQFPHISQCEELRLSLERDYHSLCERQPIGRLLFREFCATRPELSRCVAFLDGVAEYEVTPDDKRKACGRQLTQNFLSHTGPDLIPEVPRQLVTNCTQRLEQGPCKDLFQELTRLTHEYLSVAPFADYLDSIYFNRFLQWKWLERQPVTKNTFRQYRVLGKGGFGEVCACQVRATGKMYACKKLEKKRIKKRKGEAMALNEKQILEKVNSRFVVSLAYAYETKDALCLVLTLMNGGDLKFHIYHMGQAGFPEARAVFYAAEICCGLEDLHRERIVYRDLKPENILLDDHGHIRISDLGLAVHVPEGQTIKGRVGTVGYMAPEVVKNERYTFSPDWWALGCLLYEMIAGQSPFQQRKKKIKREEVERLVKEVPEEYSERFSPQARSLCSQLLCKDPAERLGCRGGSAREVKEHPLFKKLNFKRLGAGMLEPPFKPDPQAIYCKDVLDIEQFSTVKGVELEPTDQDFYQKFATGSVPIPWQNEMVETECFQELNVFGLDGSVPPDLDWKGQPPAPPKKGLLQRLFSRQDCCGNCSDSEEELPTRL
- S129 phosphorylation in vitro, kinases normalized by activity units: The most prominent result came from GRK6
- S129 phosphorylation, immunoblot (mAb 11A5), kinase:rAS 1:200 molar: Prominent signals came from GRK6, CKI, CKII and PLK2
- S129 phosphorylation, immunoblot (mAb 11A5), rank of signal: CKI>GRK6>PLK2>GRK4>GRK5>GRK2
- in vitro kinase reaction, phosphorylation of alpha-synuclein at serine 129: capable of phosphorylating alpha-synuclein specifically at serine 129 and did not phosphorylate serine 87 in vitro
- phospho ser-129 in vitro, kinases normalized for molarity: roughly equivalent levels of phospho ser-129 between CKI, GRK6 and PLK2

B2: GRK4 (protein)
chain: MELENIVANSLLLKARQGGYGKKSGRSKKWKEILTLPPVSQCSELRHSIEKDYSSLCDKQPIGRRLFRQFCDTKPTLKRHIEFLDAVAEYEVADDEDRSDCGLSILDRFFNDKLAAPLPEIPPDVVTECRLGLKEENPSKKAFEECTRVAHNYLRGEPFEEYQESSYFSQFLQWKWLERQPVTKNTFRHYRVLGKGGFGEVCACQVRATGKMYACKKLQKKRIKKRKGEAMALNEKRILEKVQSRFVVSLAYAYETKDALCLVLTIMNGGDLKFHIYNLGNPGFDEQRAVFYAAELCCGLEDLQRERIVYRDLKPENILLDDRGHIRISDLGLATEIPEGQRVRGRVGTVGYMAPEVVNNEKYTFSPDWWGLGCLIYEMIQGHSPFKKYKEKVKWEEVDQRIKNDTEEYSEKFSEDAKSICRMLLTKNPSKRLGCRGEGAAGVKQHPVFKDINFRRLEANMLEPPFCPDPHAVYCKDVLDIEQFSVVKGIYLDTADEDFYARFATGCVSIPWQNEMIESGCFKDINKSESEEALPLDLDKNIHTPVSRPNRGFFYRLFRRGGCLTMVPSEKEVEPKQC
- S129 phosphorylation, immunoblot (mAb 11A5), rank of signal: CKI>GRK6>PLK2>GRK4>GRK5>GRK2

B3: adrenergic, beta, receptor kinase 1 (GRK2; BARK1) (protein)
chain: MADLEAVLADVSYLMAMEKSKATPAARASKKILLPEPSIRSVMQKYLEDRGEVTFEKIFSQKLGYLLFRDFCLNHLEEARPLVEFYEEIKKYEKLETEEERVARSREIFDSYIMKELLACSHPFSKSATEHVQGHLGKKQVPPDLFQPYIEEICQNLRGDVFQKFIESDKFTRFCQWKNVELNIHLTMNDFSVHRIIGRGGFGEVYGCRKADTGKMYAMKCLDKKRIKMKQGETLALNERIMLSLVSTGDCPFIVCMSYAFHTPDKLSFILDLMNGGDLHYHLSQHGVFSEADMRFYAAEIILGLEHMHNRFVVYRDLKPANILLDEHGHVRISDLGLACDFSKKKPHASVGTHGYMAPEVLQKGVAYDSSADWFSLGCMLFKLLRGHSPFRQHKTKDKHEIDRMTLTMAVELPDSFSPELRSLLEGLLQRDVNRRLGCLGRGAQEVKESPFFRSLDWQMVFLQKYPPPLIPPRGEVNAADAFDIGSFDEEDTKGIKLLDSDQELYRNFPLTISERWQQEVAETVFDTINAETDRLEARKKAKNKQLGHEEDYALGKDCIMHGYMSKMGNPFLTQWQRRYFYLFPNRLEWRGEGEAPQSLLTMEEIQSVEETQIKERKCLLLKIRGGKQFILQCDSDPELVQWKKELRDAYREAQQLVQRVPKMKNKPRSPVVELSKVPLVQRGSANGL
- S129 phosphorylation, immunoblot (mAb 11A5), rank of signal: CKI>GRK6>PLK2>GRK4>GRK5>GRK2
- in vitro kinase reaction, phosphorylation of alpha-synuclein at serine 129: capable of phosphorylating alpha-synuclein specifically at serine 129 and did not phosphorylate serine 87 in vitro

B4: GRK7 (protein)
chain: MVDMGALDNLIANTAYLQARKPSDCDSKELQRRRRSLALPGLQGCAELRQKLSLNFHSLCEQQPIGRRLFRDFLATVPTFRKAATFLEDVQNWELAEEGPTKDSALQGLVATCASAPAPGNPQPFLSQAVATKCQAATTEEERVAAVTLAKAEAMAFLQEQPFKDFVTSAFYDKFLQWKLFEMQPVSDKYFTEFRVLGKGGFGEVCAVQVKNTGKMYACKKLDKKRLKKKGGEKMALLEKEILEKVSSPFIVSLAYAFESKTHLCLVMSLMNGGDLKFHIYNVGTRGLDMSRVIFYSAQIACGMLHLHELGIVYRDMKPENVLLDDLGNCRLSDLGLAVEMKGGKPITQRAGTNGYMAPEILMEKVSYSYPVDWFAMGCSIYEMVAGRTPFKDYKEKVSKEDLKQRTLQDEVKFQHDNFTEEAKDICRLFLAKKPEQRLGSREKSDDPRKHHFFKTINFPRLEAGLIEPPFVPDPSVVYAKDIAEIDDFSEVRGVEFDDKDKQFFKNFATGAVPIAWQEEIIETGLFEELNDPNRPTGCEEGNSSKSGVCLLL
- S129 phosphorylation, immunoblot (mAb 11A5): Prominent signals came from all GRKs except for GRK7
- in vitro kinase reaction, phosphorylation of alpha-synuclein at serine 129: capable of phosphorylating alpha-synuclein specifically at serine 129 and did not phosphorylate serine 87 in vitro
- phosphorylation of alpha-synuclein in vitro: GRK 7 was not able to phosphorylate at appreciable levels

B5: PLK3 (protein)
chain: MEPAAGFLSPRPFQRAAAAPAPPAGPGPPPSALRGPELEMLAGLPTSDPGRLITDPRSGRTYLKGRLLGKGGFARCYEATDTETGSAYAVKVIPQSRVAKPHQREKILNEIELHRDLQHRHIVRFSHHFEDADNIYIFLELCSRKSLAHIWKARHTLLEPEVRYYLRQILSGLKYLHQRGILHRDLKLGNFFITENMELKVGDFGLAARLEPPEQRKKTICGTPNYVAPEVLLRQGHGPEADVWSLGCVMYTLLCGSPPFETADLKETYRCIKQVHYTLPASLSLPARQLLAAILRASPRDRPSIDQILRHDFFTKGYTPDRLPISSCVTVPDLTPPNPARSLFAKVTKSLFGRKKKSKNHAQERDEVSGLVSGLMRTSVGHQDARPEAPAASGPAPVSLVETAPEDSSPRGTLASSGDGFEEGLTVATVVESALCALRNCIAFMPPAEQNPAPLAQPEPLVWVSKWVDYSNKFGFGYQLSSRRVAVLFNDGTHMALSANRKTVHYNPTSTKHFSFSVGAVPRALQPQLGILRYFASYMEQHLMKGGDLPSVEEVEVPAPPLLLQWVKTDQALLMLFSDGTVQVNFYGDHTKLILSGWEPLLVTFVARNRSACTYLASHLRQLGCSPDLRQRLRYALRLLRDRSPA
- Fold Change in Percent Synuclein Phosphorylation (ELISA, HEK-293 overexpression): 39.6 fold
- Proportion of total synuclein that is phoshorylated at ser-129 (ELISA, HEK-293 overexpression): 79.2%
- in vitro biochemical assay, phosphorylation of synuclein: PLK2 and PLK3 having extremely robust phosphorylation of synuclein

B6: PLK4 (protein)
chain: MATCIGEKIEDFKVGNLLGKGSFAGVYRAESIHTGLEVAIKMIDKKAMYKAGMVQRVQNEVKIHCQLKHPSILELYNYFEDSNYVYLVLEMCHNGEMNRYLKNRVKPFSENEARHFMHQIITGMLYLHSHGILHRDLTLSNLLLTRNMNIKIADFGLATQLKMPHEKHYTLCGTPNYISPEIATRSAHGLESDVWSLGCMFYTLLIGRPPFDTDTVKNTLNKVVLADYEMPSFLSIEAKDLIHQLLRRNPADRLSLSSVLDHPFMSRNSSTKSKDLGTVEDSIDSGHATISTAITASSSTSISGSLFDKRRLLIGQPLPNKMTVFPKNKSSTDFSSSGDGNSFYTQWGNQETSNSGRGRVIQDAEERPHSRYLRRAYSSDRSGTSNSQSQAKTYTMERCHSAEMLSVSKRSGGGENEERYSPTDNNANIFNFFKEKTSSSSGSFERPDNNQALSNHLCPGKTPFPFADPTPQTETVQQWFGNLQINAHLRKTTEYDSISPNRDFQGHPDLQKDTSKNAWTDTKVKKNSDASDNAHSVKQQNTMKYMTALHSKPEIIQQECVFGSDPLSEQSKTRGMEPPWGYQNRTLRSITSPLVAHRLKPIRQKTKKAVVSILDSEEVCVELVKEYASQEYVKEVLQISSDGNTITIYYPNGGRGFPLADRPPSPTDNISRYSFDNLPEKYWRKYQYASRFVQLVRSKSPKITYFTRYAKCILMENSPGADFEVWFYDGVKIHKTEDFIQVIEKTGKSYTLKSESEVNSLKEEIKMYMDHANEGHRICLALESIISEEERKTRSAPFFPIIIGRKPGSTSSPKALSPPPSVDSNYPTRERASFNRMVMHSAASPTQAPILNPSMVTNEGLGLTTTASGTDISSNSLKDCLPKSAQLLKSVFVKNVGWATQLTSGAVWVQFNDGSQLVVQAGVSSISYTSPNGQTTRYGENEKLPDYIKQKLQCLSSILLMFSNPTPNFH
- Fold Change in Percent Synuclein Phosphorylation (ELISA, HEK-293 overexpression): 1 fold
- Proportion of total synuclein that is phoshorylated at ser-129 (ELISA, HEK-293 overexpression): 1.9%
- in vitro biochemical assay, phosphorylation of synuclein: PLK4 exhibiting no ability to phosphorylate synuclein

B7: met proto-oncogene (hepatocyte growth factor receptor) (protein)
chain: KKRKQIKDLGSELVRYDARVHTPHLDRLVSARSVSPTTEMVSNESVDYRATFPEDQFPNSSQNGSCRQVQYPLTDMSPILTSGDSDISSPLLQNTVHIDLSALNPELVQAVQHVVIGPSSLIVHFNEVIGRGHFGCVYHGTLLDNDGKKIHCAVKSLNRITDIGEVSQFLTEGIIMKDFSHPNVLSLLGICLRSEGSPLVVLPYMKHGDLRNFIRNETHNPTVKDLIGFGLQVAKGMKYLASKKFVHRDLAARNCMLDEKFTVKVADFGLARDMYDKEYYSVHNKTGAKLPVKWMALESLQTQKFTTKSDVWSFGVLLWELMTRGAPPYPDVNTFDITVYLLQGRRLLQPEYCPDPLYEVMLKCWHPKAEMRPSFSELVSRISAIFSTFIGEHYVHVNATYVNVKCVAPYPSLLSSEDNADDEVDTRPASFWETS
- in vitro kinase reaction, phosphorylation of alpha-synuclein: shown to be incapable of directly phosphorylating alpha-synuclein

B8: CDC7 cell division cycle 7-like 1 (protein)
chain: MEASLGIQMDEPMAFSPQRDRFQAEGSLKKNEQNFKLAGVKKDIEKLYEAVPQLSNVFKIEDKIGEGTFSSVYLATAQLQVGPEEKIALKHLIPTSHPIRIAAELQCLTVAGGQDNVMGVKYCFRKNDHVVIAMPYLEHESFLDILNSLSFQEVREYMLNLFKALKRIHQFGIVHRDVKPSNFLYNRRLKKYALVDFGLAQGTHDTKIELLKFVQSEAQQERCSQNKSHIITGNKIPLSGPVPKELDQQSTTKASVKRPYTNAQIQIKQGKDGKEGSVGLSVQRSVFGERNFNIHSSISHESPAVKLMKQSKTVDVLSRKLATKKKAISTKVMNSAVMRKTASSCPASLTCDCYATDKVCSICLSRRQQVAPRAGTPGFRAPEVLTKCPNQTTAIDMWSAGVIFLSLLSGRYPFYKASDDLTALAQIMTIRGSRETIQAAKTFGKSILCSKEVPAQDLRKLCERLRGMDSSTPKLTSDIQGHASHQPAISEKTDHKASCLVQTPPGQYSGNSFKKGDSNSCEHCFDEYNTNLEGWNEVPDEAYDLLDKLLDLNPASRITAEEALLHPFFKDMSL
- in vitro kinase reaction, phosphorylation of alpha-synuclein: shown to be incapable of directly phosphorylating alpha-synuclein
